The text below walks through data of publication PMC2621155.

In the experiment the target is rapsyn, endogenous in C2C12 myotubes (mouse (endogenous in C2C12)) (UniProt P12672). Kind of experiment: co-IP; C2C12 myotube lysates, anti-rapsyn antibody and protein A agarose beads, blot for α-actinin; myotubes untreated, with agrin 10 ng/ml 18 hr, with agrin and STI-571, or with agrin and then 10 μM carbachol for 4 hr.
Sequence of UniProt P12672 (P12672 whole entry): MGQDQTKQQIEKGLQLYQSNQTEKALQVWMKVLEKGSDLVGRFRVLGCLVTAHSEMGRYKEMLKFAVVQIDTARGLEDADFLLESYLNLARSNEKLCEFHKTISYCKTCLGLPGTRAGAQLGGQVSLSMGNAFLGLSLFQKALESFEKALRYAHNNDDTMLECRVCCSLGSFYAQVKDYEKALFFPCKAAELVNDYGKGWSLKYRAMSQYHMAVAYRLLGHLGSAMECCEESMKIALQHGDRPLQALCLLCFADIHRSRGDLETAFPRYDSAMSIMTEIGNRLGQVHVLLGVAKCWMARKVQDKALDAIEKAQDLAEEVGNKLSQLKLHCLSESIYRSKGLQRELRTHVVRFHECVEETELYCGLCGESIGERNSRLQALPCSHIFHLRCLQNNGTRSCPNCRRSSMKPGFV

Regarding “α-actinin, endogenous in myotubes (from UniProt Q9JI91 1-894) (natural protein)”, the fold increase of the co-precipitation in agrin-treated against untreated myotubes lay within 6 to 10 fold.
